Assay results taken from patent US20120184713.

Key:
[1] = tested on: T1, Peptide3, OPN-ASARM derivative with the three G-CK consensus Ser residues changed to Ala
T1 sequence: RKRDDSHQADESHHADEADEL

[2] = tested on: T2, Peptide4, OPN-ASARM derivative with the other two Ser residues changed to Ala
T2 sequence: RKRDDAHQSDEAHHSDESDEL

[3] = tested on: T3, Peptide1, OPN-ASARM peptide (human Osteopontin 115Asp to 132Leu with N-terminal Arg-Lys-Arg)
T3 sequence: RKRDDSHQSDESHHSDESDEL

For Casein Kinase I (NEB), the “in vitro kinase assay with peptide substrate” value (shortened to “in vitro kinase assay”) [1] was “had reduced, but similar levels of activity on both OPN-ASARM^3S-A and OPN-ASARM^2S-A”, the “in vitro kinase assay” value [2] was “had reduced, but similar levels of activity on both OPN-ASARM^3S-A and OPN-ASARM^2S-A” and the “in vitro kinase assay” value [3] was “CKI also phosphorylated OPN-ASARM”.
